In patent US20080026998 (published 2008) one finds Ki data, which are given here for 3 molecules.

Positions count from the first letter of the chain named. In names and notes the source's numbering stands. Like-named read-outs stand apart in the source and are kept apart here.

The target of assay [1] is T1, plasmin (human, UniProt P00747).
T1 chain: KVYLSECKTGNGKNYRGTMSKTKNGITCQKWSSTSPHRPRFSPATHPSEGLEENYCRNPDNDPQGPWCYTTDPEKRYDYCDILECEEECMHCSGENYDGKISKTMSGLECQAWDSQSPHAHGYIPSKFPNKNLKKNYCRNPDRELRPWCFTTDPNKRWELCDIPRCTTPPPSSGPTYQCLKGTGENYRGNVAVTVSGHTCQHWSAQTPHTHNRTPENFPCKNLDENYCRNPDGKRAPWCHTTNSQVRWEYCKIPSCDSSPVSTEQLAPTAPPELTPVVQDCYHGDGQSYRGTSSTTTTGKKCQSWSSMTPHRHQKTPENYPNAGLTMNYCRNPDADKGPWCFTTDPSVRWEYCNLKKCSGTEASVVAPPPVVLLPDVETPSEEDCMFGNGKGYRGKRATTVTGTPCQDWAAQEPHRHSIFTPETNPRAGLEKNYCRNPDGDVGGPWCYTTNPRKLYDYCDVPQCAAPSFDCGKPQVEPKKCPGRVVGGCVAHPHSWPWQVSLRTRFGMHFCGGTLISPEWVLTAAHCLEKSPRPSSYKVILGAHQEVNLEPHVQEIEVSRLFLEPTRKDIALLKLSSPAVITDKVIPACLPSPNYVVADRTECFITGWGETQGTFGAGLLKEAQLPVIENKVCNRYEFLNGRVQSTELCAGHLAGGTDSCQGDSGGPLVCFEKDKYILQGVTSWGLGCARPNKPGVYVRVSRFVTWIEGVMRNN

Assay [2] addresses T1, plasmin.
Assay [3] concerns the target T1, plasmin.
Assay [4] deals with T1, plasmin.
Assay [5] deals with T1, plasmin.

B1: KD1 wild-type (protein)
chain: DAAQEPTGNNAEICLLPLDYGPCRALLLRYYYDRYTQSCRQFLYGGCEGNANNFYTWEACDDACWRIEKVPKV
Turning to B1, the Ki – broadly, the equilibrium dissociation constant of an inhibitor or competing ligand from its target – was 9.7 nM in the assay with plasmin [1], 7.5 nM in the assay with plasmin [2], 5.3 nM with plasmin [3] and 6.4 nM with plasmin [4].

B2: KD1 R24K (protein)
chain: B1 chain with R24K
On to B2, for which the Ki in the assay with plasmin [1] amounted to 1.33 nM; in the assay with plasmin [2], 4.6 nM; with plasmin [3], 1.1 nM; in the assay with plasmin [4], 1.02 nM.

B3: KD1 R24K/L26R (protein)
chain: B1 chain with R24K, L26R
For the molecule B3, the Ki with plasmin [1] stood at 1.06 nM; with plasmin [2], 1.5 nM; in the assay with plasmin [5], 2.2 nM; with plasmin [3], 0.625 nM; with plasmin [4] it was 1.25 nM.
